Results published in patent publication US12514920B1, “Respiratory syncytial virus mRNA vaccine, and preparation method therefor and use thereof” (Hangzhou Tianlong Pharmaceutical Co., Ltd., priority 2024, dated 2026).

How the values were obtained:
[1] = biological target: RSV pre-F antibody (3C12); test: Affinity of RSV F antigen mutants by BLI, epitope Φ; format: binding
Protocol: To investigate the affinity of the RSV F antigen mutants for antibodies specifically recognizing epitopes in a pre-fusion conformation, the affinity was determined by a bio-layer interferometry (BLI) method in this example.
• 293T cells (purchased from ATCC cell bank); • RSV pre-F antibody (3C12), epitope Φ (Novoprotein, Cat. No.: DA101); • RSV pre-F antibody (7H11), epitope Quaternary (Novoprotein, Cat. No.: DA109); • Experimental group: mRNA vaccines after screening in Example 6;
Protein sample preparation: the experimental procedure was the same as in Example 3.
The antibodies were each diluted to 10 µg/mL with a 1×PBST solution. […]
The detection was performed using a protein interaction analyzer, and the results were analyzed using Data Analysis 12.0 software to obtain the binding rate, dissociation rate, and affinity constants.
Bio-Layer interferometry (referred to as BLI) is a label-free real-time monitoring optical detection technique, mainly used for comprehensive quantitative analysis of the interaction between biomolecules and protein concentration determination. […]
In the present application, the affinity of target proteins for 2 antibodies was analyzed by a BLI method, wherein the RSV pre-F antibody (3C12) recognizes the epitope […], and the RSV pre-F antibody (7H11) recognizes the epitope Quaternary.

[2] = biological target: RSV pre-F antibody (7H11); test: Affinity of RSV F antigen mutants by BLI, epitope Quaternary; format: binding
Description: The antibodies were each diluted to 10 g/mL with a 1×PBST solution.

Molecule	Kd [1] [nM]	Kd [2] [nM]
YK-RSV-048 (protein) QNITEEFYQSTCSAVSKGYLGALRTGWYTSVITIELSNIKENKCNGTDAKVKLIKQELDKYKNAVTDLQLLMQSTPATGSGSFLGFLCGVGSAIASGVAVSKVLHLEGEVNKIKSALLSTNKAVVSLSNGVSVLTFKVLDLKNYIDKQLLPILNKQSCSIPNIETVIEFQQKNNRLLEITREFSVNAGVTTPVSTYMLTNSELLSLINDMPITNDQKKLMSNNVQIVRQQSYSIMSIIKEEVLAYVVQLPLYGVIDTPCWKLHTSPLCTTNTKEGSNICLTRTDRGWYCDNAGSVSFFPQAETCKVQSNRVFCDTMCSRTLPSEVNLCNVDIFNPKYDCKIMTSKTDVSSSVITSLGAIVSCYGKTKCTASNKNRGIIKTFSNGCDYVSNKGVDTVSVGNTLYYVNKQEGQSLYVKGEPIINFYDPLVFPSDEFDASISQVNEKINQSLAFIRKSDELLHNVNAGKSTTNIMITTIIIVIIVILLSLIAVGLLLY	0.183	0.227
YK-RSV-050 (protein) QNITEEFYQSTCSAVSKGYLGALRTGWYTSVITIELSNIKENKCNGTDAKVKLIKQELDKYKNAVTDLQLLMQSTPATGSGSFLGFCLGVGSAIASGVAVSKVLHLEGEVNKIKSALLSTNKAVVSLSNGVSVLTFKVLDLKNYIDKQLLPILNKQSCSIPNIETVIEFQQKNNRLLEITREFSVNAGVTTPVSTYMLTNSELLSLINDMPITNDQKKLMSNNVQIVRQQSYSIMSIIKEEVLAYVVQLPLYGVIDTPCWKLHTSPLCTTNTKEGSNICLTRTDRGWYCDNAGSVSFFPQAETCKVQSNRVFCDTMCSRTLPSEVNLCNVDIFNPKYDCKIMTSKTDVSSSVITSLGAIVSCYGKTKCTASNKNRGIIKTFSNGCDYVSNKGVDTVSVGNTLYYVNKQEGQSLYVKGEPIINFYDPLVFPSDEFDASISQVNEKINQSLAFIRKSDELLHNVNAGKSTTNIMITTIIIVIIVILLSLIAVGLLLY	0.552	0.115
